Laboratory results reported in patent US20250270274A1 (SERPENTIDE, published 2025).
Where two headings read alike, the source gives them in different places. Where no end group is shown, it is not given here.

How the values were obtained:
Assay in all cases: cell-based or functional assay
human GLP1 receptor [1] = biological target: T1, human GLP1 receptor (human, UniProt P43220 24-463)
mouse GIP receptor = biological target: T2, mouse GIP receptor (mouse, UniProt Q0P543 19-460)
T2 sequence (looked up): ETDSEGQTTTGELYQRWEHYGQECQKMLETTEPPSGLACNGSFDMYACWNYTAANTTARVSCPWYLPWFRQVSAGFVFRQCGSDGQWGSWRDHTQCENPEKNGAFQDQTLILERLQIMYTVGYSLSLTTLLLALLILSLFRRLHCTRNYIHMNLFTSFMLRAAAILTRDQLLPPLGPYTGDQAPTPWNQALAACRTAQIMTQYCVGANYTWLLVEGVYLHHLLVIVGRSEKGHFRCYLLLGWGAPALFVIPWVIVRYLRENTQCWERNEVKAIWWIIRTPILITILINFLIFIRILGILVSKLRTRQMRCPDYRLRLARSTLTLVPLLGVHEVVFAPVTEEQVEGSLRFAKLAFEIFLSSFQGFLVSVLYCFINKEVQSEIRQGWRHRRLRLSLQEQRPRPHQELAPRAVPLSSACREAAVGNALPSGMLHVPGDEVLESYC

human GIP receptor [2] = biological target: T3, human GIP receptor (human, UniProt P48546 22-466)
T3 sequence (looked up): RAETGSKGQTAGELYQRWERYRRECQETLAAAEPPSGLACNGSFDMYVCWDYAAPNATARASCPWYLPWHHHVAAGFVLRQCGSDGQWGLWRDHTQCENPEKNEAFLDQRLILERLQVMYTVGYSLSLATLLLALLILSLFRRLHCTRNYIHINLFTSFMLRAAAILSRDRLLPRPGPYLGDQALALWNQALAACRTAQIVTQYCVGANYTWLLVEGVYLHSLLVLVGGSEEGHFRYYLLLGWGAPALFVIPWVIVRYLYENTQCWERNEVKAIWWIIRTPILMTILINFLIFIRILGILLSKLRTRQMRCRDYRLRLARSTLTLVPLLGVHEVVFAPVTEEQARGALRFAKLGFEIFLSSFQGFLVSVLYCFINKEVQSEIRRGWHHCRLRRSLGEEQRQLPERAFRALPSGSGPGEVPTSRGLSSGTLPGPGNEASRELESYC

human GIP receptor [3] = biological target: T3, human GIP receptor; remark: listed apart in the source
human GLP1 receptor [4] = biological target: T1, human GLP1 receptor; remark: listed apart in the source

B1: P46: SP01-amG3 (antibody, human IgG4 S228P, kappa, F234A L235A)
light: HGEGTFTSDVSSYLEEQAAKEFIAWLVKGGGGGGGSGGGGSGGGGSDVVMTQTPLSLPVSLGDQASISCRSSQSLVHSNGDTYLHWYLQKPGQSPKLLIYKVSNRFSGVPDRFSGSGSGTDFTLKISRVEAADLGVYFCSQSTHVPPFTFGGGTKLEIKRTVAAPSVFIFPPSDEQLKSGTASVVCLLNNFYPREAKVQWKVDNALQSGNSQESVTEQDSKDSTYSLSSTLTLSKADYEKHKVYACEVTHQGLSSPVTKSFNRGEC
heavy: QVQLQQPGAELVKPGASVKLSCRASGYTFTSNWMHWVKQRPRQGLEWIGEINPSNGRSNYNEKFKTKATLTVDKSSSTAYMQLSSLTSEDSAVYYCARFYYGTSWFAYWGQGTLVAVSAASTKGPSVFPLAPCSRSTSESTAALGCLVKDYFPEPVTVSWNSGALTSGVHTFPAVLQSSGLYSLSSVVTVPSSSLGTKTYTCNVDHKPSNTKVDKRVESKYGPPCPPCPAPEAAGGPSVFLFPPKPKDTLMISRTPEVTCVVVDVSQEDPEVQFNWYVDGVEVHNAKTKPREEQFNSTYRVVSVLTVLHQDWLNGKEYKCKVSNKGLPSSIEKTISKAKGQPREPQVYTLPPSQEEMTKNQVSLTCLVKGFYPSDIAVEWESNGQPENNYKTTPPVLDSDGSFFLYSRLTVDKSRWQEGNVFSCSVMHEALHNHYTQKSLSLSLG
Human GLP1 receptor [1]
  EC50, HTRF cAMP bioassay: 0.034 nM
Mouse GIP receptor
  IC50, HTRF cAMP bioassay: 11.2 nM

B2: P26: SP02-bispecific antibodies for GLP1R and GIPR (bispecific antibody, human IgG1, kappa)
chain 1: YGEGTFTSDYSIYLDKIAQKAFVQWLIAGGPSSGAPPPSGGGGSGGGGSGGGGSDIVMTQSPSSLTVTAGEKVTMSCKSSQSLLNSGNQKNYLTWYQQKPGQPPKLLISWASTRDSGVPDRFTGSGSGTDFTLTISSVQAEDLAVYYCQNDYSYPLTFGAGTKLELKRTVAAPSVFIFPPSDEQLKSGTASVVCLLNNFYPREAKVQWKVDNALQSGNSQESVTEQDSKDSTYSLSSTLTLSKADYEKHKVYACEVTHQGLSSPVTKSFNRGEC
chain 2: YGEGTFTSDYSIYLDKIAQKAFVQWLIAGGPSSGAPPPSGGGGSGGGGSGGGGSQIVLTQSPAIMSASPGEKVTMTCSASSRVTYMHWYQQRSGTSPKRWIYDTSKLASGVPARFSGSGSGTSYSLTISSMEAEDAATYYCQQWGNNPQYTFGGGTRLEIKRTVAAPSVFIFPPSDEQLKSGTASVVCLLNNFYPREAKVQWKVDNALQSGNSQESVTEQDSKDSTYSLSSTLTLSKADYEKHKVYACEVTHQGLSSPVTKSFNRGEC
chain 3: not shown
chain 4: not shown
Human GLP1 receptor [1]
  EC50, HTRF cAMP bioassay: 0.12 nM
Human GIP receptor [2]
  EC50, HTRF cAMP bioassay: 48 nM
Mouse GIP receptor
  EC50, HTRF cAMP bioassay: 0.35 nM

B3: P28: SP02-amG2 (antibody, human IgG4 S228P, kappa, F234A L235A)
light: B2 chain 1
heavy: not shown
Human GLP1 receptor [1]
  EC50, HTRF cAMP bioassay: 1.25 nM
Human GIP receptor [2]
  EC50, HTRF cAMP bioassay: 69 nM
Mouse GIP receptor
  EC50, HTRF cAMP bioassay: 0.42 nM

## YGEGTFTSDYSIYLDKIAQKAFVQWLIAGGPSSGAPPPS (ends and bridges not checked) [SP02: GLP1/GIP receptor co-agonist analogue]
Human GIP receptor [3]
  EC50, HTRF cAMP bioassay: 3.69 nM

## YGEGTFTSDYSIQLDKIAQKAFVQWLIAGGPSSGAPPPS (ends and bridges not checked) [SP03: GLP1/GIP receptor co-agonist analogue]
Human GLP1 receptor [4]
  EC50, HTRF cAMP bioassay: 0.225 nM
Human GIP receptor [3]
  EC50, HTRF cAMP bioassay: 22 nM
